“Also recorded” adds a separate entry of the source.

The conditions of this data set: glycan lost.

Consider SARS-CoV-2 spike, D614G: N1194Q, for which the “other: neutralisation sensitivity” value is “no change” and the “other: neutralisation sensitivity, other: maximum % neutralisation” value is “no change, 66 ± 3 vs 64 ± 4; also recorded: no change, 60 ± 3 vs 65 ± 7”.

The values are drawn from publication PMC10662749.
